Values belong to the binder of their own block, whether it stands above or below them. Primed or numbered codes have the meaning given here. Where no end group is shown, it is not given here. Biotin′ = not defined here
Experiments:
[1] = biological target: recombinant PRC2 purified from SF9 cells (EZH2, SUZ12, EED, RBBP4) (human, UniProt Q15910 1-746; Q15022 1-739; O75530 1-441; Q09028 1-425); test: cell-based or functional assay
[2] = biological target: native PRC2 purified from HeLa cells expressing FLAG-tagged EZH2 ( | human (endogenous in HeLa), UniProt Q15910 1-746); test: steady-state enzyme kinetics (inhibition of methyltransferase activity); increasing oligonucleosome substrate with PRC2, SAM and varying EZHIP; Michaelis-Menten and Lineweaver-Burk curves fitted with competitive mode of inhibition; conditions: both partners purified
Sequence of native PRC2 purified from HeLa cells expressing FLAG-tagged EZH2 (Q15910 whole entry, chain 1 of 4): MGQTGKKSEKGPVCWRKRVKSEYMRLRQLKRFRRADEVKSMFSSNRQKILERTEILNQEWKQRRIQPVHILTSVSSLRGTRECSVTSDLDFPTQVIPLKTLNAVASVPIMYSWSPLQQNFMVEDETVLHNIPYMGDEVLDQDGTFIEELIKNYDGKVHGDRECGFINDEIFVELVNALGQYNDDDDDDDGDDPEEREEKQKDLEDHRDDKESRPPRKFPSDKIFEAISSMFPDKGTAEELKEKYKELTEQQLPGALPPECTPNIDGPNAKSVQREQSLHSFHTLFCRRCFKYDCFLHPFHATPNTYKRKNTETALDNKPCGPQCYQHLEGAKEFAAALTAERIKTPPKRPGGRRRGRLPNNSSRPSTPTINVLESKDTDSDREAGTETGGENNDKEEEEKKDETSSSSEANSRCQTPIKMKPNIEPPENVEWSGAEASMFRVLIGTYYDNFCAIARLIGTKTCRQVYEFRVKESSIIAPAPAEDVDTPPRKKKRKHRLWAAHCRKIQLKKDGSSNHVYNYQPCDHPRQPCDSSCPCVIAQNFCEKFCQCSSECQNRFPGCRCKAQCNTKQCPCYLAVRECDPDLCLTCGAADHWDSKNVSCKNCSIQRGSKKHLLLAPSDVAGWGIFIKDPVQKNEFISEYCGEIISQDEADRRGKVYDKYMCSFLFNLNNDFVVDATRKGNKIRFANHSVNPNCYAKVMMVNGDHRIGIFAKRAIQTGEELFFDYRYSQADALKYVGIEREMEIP
Sequence of native PRC2 purified from HeLa cells expressing FLAG-tagged EZH2 (Q15022 whole entry, chain 2 of 4, further chain): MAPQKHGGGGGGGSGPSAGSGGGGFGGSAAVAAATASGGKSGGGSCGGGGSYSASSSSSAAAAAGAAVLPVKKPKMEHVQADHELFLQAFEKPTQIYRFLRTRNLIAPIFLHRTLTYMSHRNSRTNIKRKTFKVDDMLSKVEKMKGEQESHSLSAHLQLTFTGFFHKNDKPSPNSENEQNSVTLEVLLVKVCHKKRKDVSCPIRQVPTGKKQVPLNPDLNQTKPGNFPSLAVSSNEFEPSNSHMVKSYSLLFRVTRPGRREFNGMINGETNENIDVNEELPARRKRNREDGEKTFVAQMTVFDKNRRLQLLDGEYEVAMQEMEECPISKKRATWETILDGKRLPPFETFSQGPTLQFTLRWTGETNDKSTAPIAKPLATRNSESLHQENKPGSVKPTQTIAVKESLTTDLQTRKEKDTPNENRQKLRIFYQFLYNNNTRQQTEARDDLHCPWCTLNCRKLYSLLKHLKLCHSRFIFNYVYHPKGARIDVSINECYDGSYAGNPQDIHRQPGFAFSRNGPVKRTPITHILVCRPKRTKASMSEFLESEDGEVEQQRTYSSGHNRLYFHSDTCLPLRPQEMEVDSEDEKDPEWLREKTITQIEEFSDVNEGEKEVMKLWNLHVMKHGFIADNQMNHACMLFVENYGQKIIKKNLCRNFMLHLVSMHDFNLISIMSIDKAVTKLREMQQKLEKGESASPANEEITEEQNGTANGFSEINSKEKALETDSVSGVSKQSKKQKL
Sequence of native PRC2 purified from HeLa cells expressing FLAG-tagged EZH2 (O75530 2-441, chain 3 of 4, further chain): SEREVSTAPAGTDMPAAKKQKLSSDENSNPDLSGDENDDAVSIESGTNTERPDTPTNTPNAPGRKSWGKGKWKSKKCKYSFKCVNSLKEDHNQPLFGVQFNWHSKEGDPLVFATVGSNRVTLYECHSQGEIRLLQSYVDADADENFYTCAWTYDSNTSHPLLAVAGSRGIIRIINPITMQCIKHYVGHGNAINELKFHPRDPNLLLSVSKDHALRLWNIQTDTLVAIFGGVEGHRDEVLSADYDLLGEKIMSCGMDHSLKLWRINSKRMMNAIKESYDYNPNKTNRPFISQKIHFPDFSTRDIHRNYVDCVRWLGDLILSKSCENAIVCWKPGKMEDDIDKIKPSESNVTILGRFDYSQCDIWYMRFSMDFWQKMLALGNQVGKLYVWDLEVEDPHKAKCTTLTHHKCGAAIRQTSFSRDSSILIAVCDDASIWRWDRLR
Sequence of native PRC2 purified from HeLa cells expressing FLAG-tagged EZH2 (Q09028 2-425, chain 4 of 4, further chain): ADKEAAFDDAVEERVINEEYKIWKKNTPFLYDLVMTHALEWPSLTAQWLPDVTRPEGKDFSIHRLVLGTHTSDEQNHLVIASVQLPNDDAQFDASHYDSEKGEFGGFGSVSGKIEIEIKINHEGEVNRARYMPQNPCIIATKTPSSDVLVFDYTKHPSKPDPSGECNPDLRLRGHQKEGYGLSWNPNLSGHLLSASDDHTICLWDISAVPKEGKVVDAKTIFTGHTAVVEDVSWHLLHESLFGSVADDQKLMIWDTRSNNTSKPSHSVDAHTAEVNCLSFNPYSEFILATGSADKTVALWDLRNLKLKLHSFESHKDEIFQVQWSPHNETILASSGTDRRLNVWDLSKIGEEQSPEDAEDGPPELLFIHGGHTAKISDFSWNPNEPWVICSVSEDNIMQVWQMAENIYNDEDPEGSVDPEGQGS

Sequence of recombinant PRC2 purified from SF9 cells (EZH2, SUZ12, EED, RBBP4) (Q15910 whole entry, chain 1 of 4): as the sequence (Q15910 whole entry, chain 1 of 4) above
Sequence of recombinant PRC2 purified from SF9 cells (EZH2, SUZ12, EED, RBBP4) (Q15022 whole entry, chain 2 of 4): as the sequence (Q15022 whole entry, chain 2 of 4, further chain) above
Sequence of recombinant PRC2 purified from SF9 cells (EZH2, SUZ12, EED, RBBP4) (O75530 whole entry, chain 3 of 4): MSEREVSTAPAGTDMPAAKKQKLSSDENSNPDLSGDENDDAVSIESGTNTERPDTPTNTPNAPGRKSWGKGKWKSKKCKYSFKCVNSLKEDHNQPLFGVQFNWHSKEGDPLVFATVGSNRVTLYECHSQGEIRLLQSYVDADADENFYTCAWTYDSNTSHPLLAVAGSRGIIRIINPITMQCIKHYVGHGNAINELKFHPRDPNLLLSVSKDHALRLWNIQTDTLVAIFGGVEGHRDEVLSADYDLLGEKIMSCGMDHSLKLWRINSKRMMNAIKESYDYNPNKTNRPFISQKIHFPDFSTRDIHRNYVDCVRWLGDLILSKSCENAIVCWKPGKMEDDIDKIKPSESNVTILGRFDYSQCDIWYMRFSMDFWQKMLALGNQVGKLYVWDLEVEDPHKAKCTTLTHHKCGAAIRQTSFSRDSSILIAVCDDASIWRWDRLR
Sequence of recombinant PRC2 purified from SF9 cells (EZH2, SUZ12, EED, RBBP4) (Q09028 whole entry, chain 4 of 4): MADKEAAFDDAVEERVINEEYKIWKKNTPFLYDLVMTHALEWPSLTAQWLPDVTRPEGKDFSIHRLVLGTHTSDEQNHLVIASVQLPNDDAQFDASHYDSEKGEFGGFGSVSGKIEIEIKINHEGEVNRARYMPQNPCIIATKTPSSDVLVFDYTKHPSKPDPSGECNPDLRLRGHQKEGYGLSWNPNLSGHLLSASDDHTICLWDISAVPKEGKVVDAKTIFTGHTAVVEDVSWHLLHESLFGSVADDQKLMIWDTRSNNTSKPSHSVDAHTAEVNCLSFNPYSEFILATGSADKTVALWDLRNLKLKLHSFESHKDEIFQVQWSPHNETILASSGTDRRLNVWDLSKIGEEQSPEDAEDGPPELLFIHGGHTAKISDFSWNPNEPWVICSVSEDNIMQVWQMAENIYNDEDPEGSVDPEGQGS

IC50 of rPRC2-Ezh2 methyltransferase activity on H3 (18-37) peptide substrate, H3 K27M (18-37) peptide titrated, with H3K27me3 stimulatory peptide [1]: 27.9 µM
Binder: KQLATKAARMSAPSTGGVKKYK (not fully specified; biotin on the added C-terminal K) [biotinylated H3.3 K27M (18-37) peptide]

Ki [2]: 0.00222 µM
B1: recombinant EZHIP purified from SF9 cells (natural protein)
chain: MATQSDMEKEQKHQQDEGQGGLNNETALASGDACGTGNQDPAASVTTVSSQASPSGGAALSSSTAGSSAAAATSAAIFITDEASGLPIIAAVLTERHSDRQDCRSPHEVFGCVVPEGGSQAAVGPQKATGHADEHLAQTKSPGNSRRRKQPCRNQAAPAQKPPGRRLFPEPLPPSSPGFRPSSYPCSGASTSSQATQPGPALLSHASEARPATRSRITLVASALRRRASGPGPVIRGCTAQPGPAFPHRATHLDPARLSPESAPGPARRGRASVPGPARRGCDSAPGPARRGRDSAPVSAPRGRDSAPGSARRGRDSAPGPALRVRTARSDAGHRSTSTTPGTGLRSRSTQQRSALLSRRSLSGSADENPSCGTGSERLAFQSRSGSPDPEVPSRASPPVWHAVRMRASSPSPPGRFFLPIPQQWDESSSSSYASNSSSPSRSPGLSPSSPSPEFLGLRSISTPSPESLRYALMPEFYALSPVPPEEQAEIESTAHPATPPEP

IC50 of PRC2 methyltransferase activity on H3 18-37 peptide, EZHIP KLP titrated, without H3K27me3 stimulatory peptide [1]: 35 µM | IC50 of rPRC2-Ezh2 methyltransferase activity on H3 (18-37) peptide substrate, KLP (403-423) peptide titrated, with H3K27me3 stimulatory peptide [1]: 4.1 µM
Binder: AVRMRASSPSPPGRFFLPIPK-{Biotin′} (not fully specified (residue 21); printed as AVRMRASSPSPPGRFFLPIPK-biotin) [biotinylated EZHIP (403-422) peptide, K27M-like peptide]
